Experimental findings from patent publication US20120027722A1 (MEDICAL RESEARCH COUNCIL, published 2012) are described below.

B1: humanized AP33 antibody RHA/RK2bc (antibody, V domains shown)
VH: QVQLQESGPGLVKPSETLSLTCTVSGDSISSGYWNWIRQPPGRALEWIGYISYSGSTYYNLSLRSRVTISVDTSKNQFSLRLSSVTAADTAMYYCARITTTTYAMDYWGQGTTVTVS
VL: EIVLTQSPSSLSASVGDRVTITCRASESVDGYGNSFLHWFQQKPGKAPKLLIYLASNLNSGVPSRFSGSGSRTDFTLTISSLQPEDFATYYCQQNNVDPWTFGQGTKLEIK
notes: Human IgG1/kappa from vectors pG1D200 and pKN100, COS7 expression; also called AP33RHA/RK2bc
B2: Vh/RK2bc (antibody, V domains shown)
VH: EVQLQESGPSLVKPSQTLSLTCSVTGDSITSGYWNWIRKFPGNKLEYMGYISYSGSTYYNLSLRSRISITRDTSKNQYYLQLNSVTTEDTATYYCALITTTTYAMDYWGQGTSVTVS
VL: EIVLTQSPSSLSASVGDRVTITCRASESVDGYGNSFLHWFQQKPGKAPKLLIYLASNLNSGVPSRFSGSGSRTDFTLTISSLQPEDFATYYCQQNNVDPWTFGQGTKLEIK
notes: COS7 supernatant; also called chimeric AP33 heavy chain Vh with humanized light chain RK2bc
B3: RHA/Vl (humanized heavy chain RHA with chimeric light chain) (antibody, V domains shown)
VH: QVQLQESGPGLVKPSETLSLTCTVSGDSISSGYWNWIRQPPGRALEWIGYISYSGSTYYNLSLRSRVTISVDTSKNQFSLRLSSVTAADTAMYYCARITTTTYAMDYWGQGTTVTVS
VL: NIVLTQSPVSLAVSLGQRATISCRASESVDGYGNSFLHWFQQKPGQPPKLLIYLASNLNSGVPARFSGSGSRTDFTLTIDPVEADDAATYYCQQNNVDPWTFGGGTKLEIK
notes: Human IgG1/kappa from vectors pG1D200 and pKN100, COS7 expression

No end group written: not given here.

For this assay, the target named is T1, AP33 mimotope peptide H6.
T1 construct: captured on streptavidin plates; also called mimotope H6; H6 peptide
T1 peptide: VELRNLGGTWRPGSGK-biotin
Put plainly: peptide ELISA: biotinylated peptide on streptavidin plate, COS7 supernatant, anti-human kappa HRP, OD 655 nm. On the technique in general: ELISA stands for enzyme-linked immunosorbent assay.
For the molecule B1, the binding result was “binds”.

Take B2: the binding result is “binds”.

As for B3, the binding result is listed as “binds”.
